Article PMC9060444 (2022)

How the values were obtained:
[1] = target: human complement C1 complex (human) (UniProt P02745)
[2] = target: human C1s enzyme (activated C1s) (human); assay: ELISA; ELISA-type binding assay: GST-fusion proteins on wells coated with human C1 complex, C1q, C1r enzyme or C1s enzyme; apparent KD by nonlinear regression (GraphPad Prism)
[3] = target: human C1r enzyme (activated C1r) (human); assay: as above
[4] = target: human complement C1 complex (human) (UniProt P02745); assay: as above
[5] = target: GST-ElpB (B. burgdorferi strain B31); assay: SPR; Biacore T200; GST-ElpB or GST-ElpQ immobilised on the sensor chip; C1 complex (twofold series 0.6 to 150 nM), C1r or C1s enzyme or proenzyme injected as analyte; steady-state affinity fits; triplicate
[6] = target: GST-ElpQ (B. burgdorferi strain B31); assay: as above
[7] = target: human C1s enzyme (activated C1s) (human)
[8] = target: T1, human C1s enzyme (activated C1s) (human); assay: SPR
T1 chain 1: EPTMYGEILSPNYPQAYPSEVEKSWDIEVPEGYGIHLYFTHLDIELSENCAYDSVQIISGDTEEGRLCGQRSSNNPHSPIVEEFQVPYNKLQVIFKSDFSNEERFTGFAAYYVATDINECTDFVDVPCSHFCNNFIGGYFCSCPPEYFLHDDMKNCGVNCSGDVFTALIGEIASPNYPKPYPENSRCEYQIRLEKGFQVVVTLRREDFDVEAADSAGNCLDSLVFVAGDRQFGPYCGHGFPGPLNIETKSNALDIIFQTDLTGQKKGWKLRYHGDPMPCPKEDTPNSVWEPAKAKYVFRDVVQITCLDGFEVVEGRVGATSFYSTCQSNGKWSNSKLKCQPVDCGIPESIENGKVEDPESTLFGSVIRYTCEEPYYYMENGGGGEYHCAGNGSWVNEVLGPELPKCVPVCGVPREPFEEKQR
T1 chain 2: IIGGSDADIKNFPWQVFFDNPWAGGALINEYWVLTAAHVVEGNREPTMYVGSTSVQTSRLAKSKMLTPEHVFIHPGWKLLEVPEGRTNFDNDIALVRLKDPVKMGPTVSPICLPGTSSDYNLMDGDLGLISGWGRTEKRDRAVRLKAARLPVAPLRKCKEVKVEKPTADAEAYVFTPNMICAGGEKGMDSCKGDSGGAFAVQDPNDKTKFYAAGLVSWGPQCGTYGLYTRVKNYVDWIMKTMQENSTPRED

BBK32-C (domain or fragment)
IC50 of inhibition of C4b deposition from normal human serum on IgM-coated wells (ELISA); by the table's footnote based on the non-GST-tagged BBK32-C construct [1]: 0.018 µM

GST-BBK32 (from UniProt O50835 1-354) (natural protein)
IC50 of inhibition of C3b deposition from normal human serum on IgM-coated wells (ELISA) [1]: 0.029 µM
IC50 of inhibition of C5b-9 deposition from normal human serum on IgM-coated wells (ELISA) [1]: 0.1 µM
IC50 of inhibition of classical-pathway lysis of antibody-sensitised sheep erythrocytes by normal human serum [1]: 0.079 µM

GST-ElpB (natural protein)
Kd [2]: 0.0067 µM
Kd [3]: 0.041 µM
Kd [4]: 0.0034 µM
IC50 of inhibition of C3b deposition from normal human serum on IgM-coated wells (ELISA) [1]: 0.57 µM
IC50 of inhibition of C4b deposition from normal human serum on IgM-coated wells (ELISA) [1]: 0.33 µM
IC50 of inhibition of C5b-9 deposition from normal human serum on IgM-coated wells (ELISA) [1]: 0.3 µM
IC50 of inhibition of classical-pathway lysis of antibody-sensitised sheep erythrocytes by normal human serum [1]: 1.6 µM

GST-ElpQ (natural protein)
Kd [2]: 0.0047 µM
Kd [3]: 0.011 µM
Kd [4]: 0.0038 µM
IC50 of inhibition of C3b deposition from normal human serum on IgM-coated wells (ELISA) [1]: 0.45 µM
IC50 of inhibition of C4b deposition from normal human serum on IgM-coated wells (ELISA) [1]: 0.26 µM
IC50 of inhibition of C5b-9 deposition from normal human serum on IgM-coated wells (ELISA) [1]: 1 µM
IC50 of inhibition of classical-pathway lysis of antibody-sensitised sheep erythrocytes by normal human serum [1]: 1.5 µM

human C1r enzyme (activated C1r)
Kd [5]: 0.1 µM
Kd [6]: 0.097 µM

human C1s enzyme (activated C1s)
Kd [5]: 0.0039 µM
Kd [6]: 0.0045 µM

human C1s proenzyme
Kd [5]: 0.27 µM
Kd [6]: 0.17 µM

human complement C1 complex (from UniProt P02745 23-245; P02746 28-253; P02747 29-245)
Kd [5]: 0.0056 µM

tagless ElpB (natural protein)
IC50 of inhibition of the cleavage of C2 by C1s enzyme (SDS/PAGE) [7]: 0.87 µM

tagless ElpQ (natural protein)
IC50 of inhibition of the cleavage of C2 (685 nM) by C1s enzyme (6.25 nM), SDS/PAGE densitometry of C2b, ElpQ 16 to 0.13 uM, 1 h at 37 C [7]: 1.4 µM
IC50 of inhibition of the cleavage of C4 (616 nM) by C1s enzyme (6.25 nM), SDS/PAGE densitometry of C4 alpha', ElpQ 25 to 0.20 uM, 1 h at 37 C [7]: 11 µM

B1: tagless ElpQ (natural protein)
chain: CKNFATGKDIKQNSEGKIKGFVNKILDPVKDKIASSGTKVDEVAKKLQEEEKEELMQGDDPNGSGINPPPVLPENIHNNALVLKAIEQSDGQQEKKVEEAEAKVEENKEKQENTEENIKEKEIIDEQNKQELAKAKEEEQQKEQKRHQEEQQRKAKAEKEKREREEAEQQKRQQEEEEKRQVDNQIKTLIAKIDEINENIDVIKWQTTVGPQGVIDRITGPVYDDFTNGNNSIRETWEGLEEESEDEGLGKLLKELSDARDALRTKLNEGNKPYTGYEEPKLKESVNVSEIKEDLEKLKSKLEEVKKYLKDSSKFEEIKGYISDSQ
Kd [8]: 0.015 µM

B2: GST-ElpQ (natural protein)
chain: B1 chain
Kd [8]: 0.0165 µM
